± gives the standard deviation of the averaged measurements.
What follows are sequences tested on Saccharomyces cerevisiae (assay: protein stability index of tFT-peptide fusion (C-terminal peptide) (PSI (0-1 scale)); higher = more stable (slower turnover)). Details: genetic background: wild type; temperature: 30 C.
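Also: PSI is a weighted mean of sequencing reads over stability bins, variants kept only with over 10 reads, mCherry proximal and sfGFP distal, peptide attached via GGGS linker.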

| Sequence | protein stability index |
| --- | --- |
| SGCVLCLCCYMV | 0.666 ± 0.015 |
| SGCWREVEVGFG | 0.737 ± 0.059 |
| SGFLAKNIKQLC | 0.578 ± 0.042 |
| SGFQAPGSVASE | 0.623 ± 0.014 |
| SGFQIRVPVFMG | 0.619 ± 0.0095 |
| SGFVQRLHVICN | 0.5706 ± 0.0011 |
| SGGCVLRLWGFV | 0.6853 ± 0.0019 |
| SGHRLGRGQGQR | 0.67 ± 0.02 |
| SGIYQTTSYIKI | 0.7505 ± 0.0029 |
| SGLFPLSPKPCP | 0.619 ± 0.11 |
| SGLGRETHGSYS | 0.66 ± 0.012 |
| SGMGGCRKGFEG | 0.717 ± 0.011 |
| SGPRVCPGMHWQ | 0.651 ± 0.013 |
| SGPYPVGKQRSE | 0.649 ± 0.05 |
| SGRGWILCAYRV | 0.632 ± 0.024 |
| SGRSGECEGSWD | 0.662 ± 0.13 |
| SGRTQPRGKHNA | 0.683 ± 0.016 |
| SGRVELGVVGGG | 0.695 ± 0.04 |
| SGSCPSSTSATT | 0.732 ± 0.057 |
| SGSGVLVGCLGS | 0.68 ± 0.038 |
| SGSVALWVCSVV | 0.5878 ± 0.0056 |
| SGTVRSTPPHPP | 0.664 ± 0.0072 |
| SGVAAPVRPRSV | 0.854 ± 0.11 |
| SGVAYAVYLVFR | 0.472 ± 0.047 |
| SGVFARIKRTVV | 0.489 ± 0.072 |
| SGVGCLVFGRGF | 0.645 ± 0.046 |

| Sequence | protein stability index |
| --- | --- |
| SGVGPGNPPRPG | 0.689 ± 0.011 |
| SGVPGGSVGVPG | 0.661 ± 0.028 |
| SGVVSASFVVLD | 0.677 ± 0.01 |
| SGWEVAGGCDNK | 0.692 ± 0.0021 |
| SGWRCSVAVLQV | 0.592 ± 0.033 |
| SGYYTRVFICEV | 0.618 ± 0.025 |
| SHESRPNLGCIY | 0.678 ± 0.026 |
| SHFPPPSTPPVL | 0.713 ± 0.015 |
| SHLPPRSPPVPS | 0.6825 ± 0.0051 |
| SHPPPPPSPPPR | 0.6922 ± 0.0051 |
| SICSIRPFSDLP | 0.683 ± 0.015 |
| SIGYDLFTKDKI | 0.789 ± 0.13 |
| SIIRYNKSATIT | 0.667 ± 0.047 |
| SIIYKRKKGRRW | 0.714 ± 0.039 |
| SILTALGEVLLV | 0.665 ± 0.013 |
| SILVAGVSAGRC | 0.669 ± 0.021 |
| SIMSVLPYCSCS | 0.708 ± 0.06 |
| SIQCHNTKKFYE | 0.715 ± 0.032 |
| SISSVFCTGRCH | 0.721 ± 0.19 |
| SIVAWGWPAASE | 0.85 ± 0.19 |
| SIVIGGSWGRSW | 0.711 ± 0.052 |
| SIVSQGISDLGR | 0.656 ± 0.046 |
| SIYIEKERKMIV | 0.686 ± 0.025 |
| SKGECYSETDVA | 0.684 ± 0.018 |
| SKKNKPAQRRPH | 0.729 ± 0.026 |
| SKKRKEKRTKEW | 0.63 ± 0.083 |

| Sequence | protein stability index |
| --- | --- |
| SKLEREKQNKGY | 0.634 ± 0.021 |
| SKLRKGNSIDDR | 0.625 ± 0.016 |
| SKREYGKEYKRK | 0.656 ± 0.0084 |
| SKSCIVSNVLVY | 0.511 ± 0.014 |
| SKTIRDTYIFKR | 0.816 ± 0.15 |
| SLASCLLRPPLY | 0.693 ± 0.021 |
| SLASYFFHVSHS | 0.7127 ± 0.0064 |
| SLCLPFPSSPPP | 0.677 ± 0.0083 |
| SLDGTVHARRAH | 0.695 ± 0.07 |
| SLDISDCGFCLH | 0.697 ± 0.018 |
| SLDRASPPTSVA | 0.625 ± 0.0007 |
| SLFFGDCNLVRV | 0.7166 ± 0.0036 |
| SLFPPAPPPPRS | 0.641 ± 0.098 |
| SLFRSSHPPRPP | 0.605 ± 0.034 |
| SLFSFSLSLCSP | 0.653 ± 0.06 |
| SLFYSPSSVFSF | 0.866 ± 0.13 |
| SLGCLLENRRGL | 0.641 ± 0.015 |
| SLGGFLPPESFV | 0.708 ± 0.049 |
| SLGSRFWGPYPF | 0.679 ± 0.029 |
| SLGVPVVWGLWI | 0.744 ± 0.032 |
| SLILSAGLGFFF | 0.719 ± 0.095 |
| SLKELSYKGTLR | 0.65 ± 0.038 |
| SLLHGVFFWVLT | 0.572 ± 0.013 |
| SLLPLSTPPASP | 0.624 ± 0.0079 |
| SLLRPPHASFSS | 0.688 ± 0.044 |
| SLLSLPPSRAPS | 0.666 ± 0.022 |

| Sequence | protein stability index |
| --- | --- |
| SLLTLVIPTLFS | 0.665 ± 0.0048 |
| SLPDSLPRPPPS | 0.656 ± 0.072 |
| SLPFSPSFLSSF | 0.67 ± 0.015 |
| SLPLIPCPSPPL | 0.751 ± 0.065 |
| SLPLPNTPVPPI | 0.723 ± 0.081 |
| SLPPHPAPPPAA | 0.757 ± 0.014 |
| SLPPLDTPPSSC | 0.73 ± 0.14 |
| SLPPPSSPPPPL | 0.692 ± 0.089 |
| SLPPSRSPSPTL | 0.665 ± 0.13 |
| SLPRPPRPPQSH | 0.677 ± 0.038 |
| SLQPRRGQPVTG | 0.711 ± 0.0078 |
| SLQRLFGRGGMV | 0.643 ± 0.1 |
| SLRICGAFPRTF | 0.705 ± 0.0092 |
| SLRLFVPVYPPP | 0.576 ± 0.078 |
| SLRRPPPRSRNG | 0.654 ± 0.048 |
| SLSIFTSFLVLF | 0.598 ± 0.021 |
| SLSLFYFRFFPF | 0.661 ± 0.05 |
| SLSPPSSPLPPP | 0.703 ± 0.053 |
| SLSRSFCRAHRS | 0.722 ± 0.047 |
| SLSVPPRPSSPP | 0.624 ± 0.017 |
| SLVAFAKMANFV | 0.633 ± 0.044 |
| SLWLRLAIPSRY | 0.68862 ± 0.00061 |
| SMASQLSQRGSD | 0.641 ± 0.076 |
| SMFRNSWRKNKS | 0.602 ± 0.012 |
| SMRFLGIKLKKY | 0.648 ± 0.023 |
| SMSEYGLLTMLE | 0.669 ± 0.011 |

| Sequence | protein stability index |
| --- | --- |
| SNERWCGCGLLW | 0.764 ± 0.0097 |
| SNIKEYKSINGR | 0.666 ± 0.02 |
| SNKDLELVSTVC | 0.658 ± 0.002 |
| SNLPVSSLPSLS | 0.6818 ± 0.0048 |
| SNLRSPFPSLPL | 0.714 ± 0.022 |
| SNPGGYCPQGVP | 0.731 ± 0.024 |
| SNRRSSRSLYYM | 0.698 ± 0.033 |
| SNVRSRGAGISM | 0.729 ± 0.087 |
| SPAASPVPLHPR | 0.603 ± 0.15 |
| SPAGGPRGGEGV | 0.678 ± 0.075 |
| SPAGGPSGGEGV | 0.674 ± 0.062 |
| SPARPPFPPPPL | 0.72 ± 0.029 |
| SPASIVPTLELA | 0.638 ± 0.024 |
| SPCARPPPFPAR | 0.724 ± 0.034 |
| SPCLLPPPRSSP | 0.737 ± 0.027 |
| SPCRSPPPDLPQ | 0.645 ± 0.1 |
| SPFLTPPPPRPA | 0.682 ± 0.024 |
| SPFPPLPSRPPP | 0.676 ± 0.0097 |
| SPFSPTAPPPPP | 0.718 ± 0.017 |
| SPHPLLSSPPPA | 0.686 ± 0.075 |
| SPIIVCLFDLGF | 0.654 ± 0.037 |
| SPLLFLLPPAAP | 0.692 ± 0.062 |
| SPLLPFPLPPSI | 0.718 ± 0.018 |
| SPLPADSHPLPP | 0.667 ± 0.015 |
| SPLPPPLPPFPP | 0.6171 ± 0.0056 |
| SPLPRPHRGPPP | 0.58 ± 0.054 |

| Sequence | protein stability index |
| --- | --- |
| SPMELEHSSAVP | 0.6605 ± 0.0046 |
| SPPAALLPLFLR | 0.676 ± 0.051 |
| SPPAPLPPPLPR | 0.648 ± 0.025 |
| SPPFLPPLITFP | 0.681 ± 0.023 |
| SPPLPPLGFNPP | 0.6414 ± 0.0025 |
| SPPPARLLPPPS | 0.723 ± 0.12 |
| SPPPLPHPPAAS | 0.698 ± 0.023 |
| SPPPLPPPPPSP | 0.68 ± 0.036 |
| SPPPPLTSLVPP | 0.688 ± 0.075 |
| SPPPPPLPPAYL | 0.681 ± 0.012 |
| SPPPPPLPPPHP | 0.6564 ± 0.0035 |
| SPPPPQEADYVV | 0.62 ± 0.026 |
| SPPPPRAPTPPP | 0.698 ± 0.035 |
| SPPPPSRPTLPP | 0.593 ± 0.011 |
| SPPPRSPRPFPG | 0.6757 ± 0.0012 |
| SPPPSPAPPPPP | 0.684 ± 0.083 |
| SPPPSSSPPPSP | 0.612 ± 0.03 |
| SPPPTPPGLLLL | 0.694 ± 0.012 |
| SPPPTSQHSGPP | 0.657 ± 0.042 |
| SPPRATVRPTSP | 0.824 ± 0.078 |
| SPPRPSSPRASP | 0.664 ± 0.074 |
| SPPSFLPLPLPS | 0.675 ± 0.033 |
| SPPSHPHRPTFP | 0.753 ± 0.28 |
| SPPSPLSLPLPS | 0.707 ± 0.014 |
| SPPTEPFPDPTH | 0.6628 ± 0.0053 |
| SPQRAHLHHHPT | 0.654 ± 0.026 |

| Sequence | protein stability index |
| --- | --- |
| SPRISSCSPFDS | 0.726 ± 0.036 |
| SPRPSVLPPLSL | 0.734 ± 0.011 |
| SPRVKEVSREIR | 0.689 ± 0.045 |
| SPRVSRRVLPSF | 0.6696 ± 0.0027 |
| SPRYLLFSLRSP | 0.714 ± 0.11 |
| SPSFPPHRPPQH | 0.724 ± 0.066 |
| SPSHSVSGPLSF | 0.648 ± 0.014 |
| SPSLPQLLDPPS | 0.711 ± 0.011 |
| SPSLSFVFPVSL | 0.756 ± 0.039 |
| SPSPHPQPLIPL | 0.681 ± 0.03 |
| SPSPPLPFSRPP | 0.686 ± 0.044 |
| SPSPPPASPPAP | 0.654 ± 0.14 |
| SPSRHPSPPKPP | 0.607 ± 0.021 |
| SPSSSPLSPFPL | 0.713 ± 0.084 |
| SPSTSPPPSSSS | 0.697 ± 0.042 |
| SPSYACLPPPIP | 0.7461 ± 0.0032 |
| SPTPLDPLRAPL | 0.6902 ± 0.0027 |
| SPTPPPPPPRPP | 0.581 ± 0.018 |
| SPVPLPPPLPSL | 0.664 ± 0.023 |
| SPVPVTFSLLTR | 0.698 ± 0.0082 |
| SPVRLSSVPRPY | 0.683 ± 0.019 |
| SPWLSSRFRVPR | 0.686 ± 0.021 |
| SPWMSKNGQSSD | 0.622 ± 0.02 |
| SPWWAPPSPPYP | 0.582 ± 0.015 |
| SQAFPPADLRPR | 0.719 ± 0.058 |
| SQLKHLPPDREC | 0.679 ± 0.016 |

| Sequence | protein stability index |
| --- | --- |
| SQMMLKQKFLRR | 0.628 ± 0.024 |
| SRACTRRSHTLE | 0.681 ± 0.032 |
| SRAIEPSEFSVA | 0.715 ± 0.055 |
| SRARPPLLPFPP | 0.615 ± 0.061 |
| SRASTGPPPPGT | 0.692 ± 0.026 |
| SRCGSFRICFGT | 0.638 ± 0.013 |
| SRFLPPSHLLPP | 0.738 ± 0.093 |
| SRFVRNRYGRVV | 0.648 ± 0.027 |
| SRGRAGESRPRG | 0.712 ± 0.069 |
| SRGSSGHLVNLV | 0.607 ± 0.049 |
| SRGVLLCHCSIA | 0.758 ± 0.12 |
| SRKCLPPLQLWS | 0.759 ± 0.067 |
| SRLLPPLPPLSP | 0.767 ± 0.097 |
| SRNKLNSIIIEK | 0.608 ± 0.046 |
| SRPLPLPPRPLP | 0.647 ± 0.023 |
| SRPLPPSLPPPP | 0.756 ± 0.0098 |
| SRPLQPLHQPKY | 0.681 ± 0.052 |
| SRPPAPPPLPAP | 0.726 ± 0.025 |
| SRPPPPSIYLSI | 0.6912 ± 0.0021 |
| SRPRSPPPPPIT | 0.819 ± 0.054 |

— the supplement of paper PMC10724198
